To fix the notation:
B1: Hairpin Ribozyme (parent)
chain: GUCCUCUUUCACGUGCGCGUGAAAGAGAGAAGUGAACCAGAGAAACACACGUUGUGGUAUAUUACCUGGUA

Variants of B1 are the subject of the data set. The data set is described as follows: self-cleavage, relative activity (ratio to wild type); higher = more cleavage; co-transcriptional.
For the variant G29U A41C, the self-cleavage was 0.217.

On to A41C A47U, for which the self-cleavage turned out to be 0.229.

Consider G17A A71C, for which the self-cleavage was determined as 1.37.

On to U5G C66A, for which the self-cleavage was 0.0473.

G57C U60G: the self-cleavage worked out at 0.178.

In the case of U2A G17C, the self-cleavage came out at 0.22.

Regarding A39C G42A, the self-cleavage amounted to 0.191.

As to A43C A59U, the self-cleavage was found to be 0.101.

As to G21C U60A, the self-cleavage was found to be 0.744.

Regarding C38U C48A, the self-cleavage was determined as 0.142.

For A44G U63C, the self-cleavage stood at 0.21.

In the case of C12A A22G, the self-cleavage was 0.692.

U8C G19U: the self-cleavage turned out to be 0.582.

U14G A26U: the self-cleavage was 0.549.

With C6U U14C, the self-cleavage worked out at 0.932.

As for C12A A36C, the self-cleavage worked out at 0.523.

For the variant U5C A36C, the self-cleavage was 0.576.

For the variant C10A U60C, the self-cleavage worked out at 0.579.

As to G25C A28U, the self-cleavage was 0.327.

On to G17A A24C, for which the self-cleavage was found to be 0.894.

For G40A U58A, the self-cleavage amounted to 0.134.

For the variant U2G U55G, the self-cleavage amounted to 0.367.

Consider G32C G68U, for which the self-cleavage was found to be 0.135.

On to U20G A49U, for which the self-cleavage came out at 0.148.

Take U7C A11C: the self-cleavage worked out at 0.525.

For the variant U9A A49G, the self-cleavage worked out at 0.395.

As for C38G U52A, the self-cleavage was 0.169.

Turning to U67G U70C, the self-cleavage was found to be 0.588.

For the variant A23U A39G, the self-cleavage is 0.298.

For A43U U55G, the self-cleavage is 0.232.

Regarding U14A A31U, the self-cleavage turned out to be 0.124.

Consider A22C A41G, for which the self-cleavage was 0.704.

Turning to G13C C48U, the self-cleavage was 0.108.

For the variant C18G G56C, the self-cleavage is 0.176.

Take C18G G42C: the self-cleavage came out at 0.255.

With U14G A47U, the self-cleavage is 0.105.

For G42U G68C, the self-cleavage came out at 0.152.

With U62A C65A, the self-cleavage came to 0.165.

Consider C10U C38G, for which the self-cleavage was 0.269.

Turning to G32A A49U, the self-cleavage was 0.0556.

Consider C4G C16U, for which the self-cleavage was 0.194.

As for C38G A41C, the self-cleavage was 0.264.

Take C6U G27A: the self-cleavage amounted to 0.309.

As for G29A G34C, the self-cleavage was 0.248.

As to C3U G68A, the self-cleavage turned out to be 0.183.

Turning to C37U A59U, the self-cleavage came out at 0.16.

Take U5A U60A: the self-cleavage stood at 0.477.

As to A26C G51U, the self-cleavage is 0.919.

As to C4U U60A, the self-cleavage was 0.199.

As for U7G U33C, the self-cleavage was 0.113.

On to U8G U33C, for which the self-cleavage amounted to 0.117.

For G25C G42C, the self-cleavage came out at 0.236.

For A59U U60A, the self-cleavage was determined as 0.195.

As for G15A C18U, the self-cleavage worked out at 1.05.

For the variant A36G A47G, the self-cleavage came to 0.106.

As to G15C A26C, the self-cleavage turned out to be 0.834.

For the variant U7C C50A, the self-cleavage came out at 0.209.

As to U8A U52G, the self-cleavage came out at 0.518.

In the case of U2A A39G, the self-cleavage was 0.0775.

Take A47U U60C: the self-cleavage was 0.0859.

For the variant C12U G54U, the self-cleavage came out at 0.58.

On to C3A G68A, for which the self-cleavage was determined as 0.172.

With G19C C46G, the self-cleavage came out at 0.088.

As for A35G U60G, the self-cleavage was 0.443.

Consider C37G U63G, for which the self-cleavage amounted to 0.129.

In the case of G32C A64C, the self-cleavage is 0.183.

As to G42A U53C, the self-cleavage was 0.388.

On to A26U A59U, for which the self-cleavage stood at 0.108.

Turning to U7C A22U, the self-cleavage was 0.642.

Consider U14A U63A, for which the self-cleavage worked out at 0.162.

A44C G69C: the self-cleavage came out at 0.141.

Take U2G A44G: the self-cleavage was determined as 0.0352.

As for U9G G21C, the self-cleavage stood at 0.736.

Turning to C3U U58A, the self-cleavage stood at 0.257.

Consider U53G A61U, for which the self-cleavage was 0.186.

On to A39U U67C, for which the self-cleavage turned out to be 0.286.

With U9C C18A, the self-cleavage stood at 0.84.

Take A49U U70G: the self-cleavage turned out to be 0.39.

U5G A31U: the self-cleavage stood at 0.0772.

With G29U C50G, the self-cleavage turned out to be 0.184.

G34A A71C: the self-cleavage stood at 1.6.

For U8A A31U, the self-cleavage was 0.135.

With G42U C66A, the self-cleavage turned out to be 0.162.

With G15C G56C, the self-cleavage came to 0.113.

With C3A U58G, the self-cleavage worked out at 0.274.

U7C G54C: the self-cleavage is 0.683.

In the case of C37A U53A, the self-cleavage was 0.356.

In the case of C10G G13C, the self-cleavage is 0.401.

For the variant U14C G29A, the self-cleavage is 0.0903.

With G54A U58G, the self-cleavage was found to be 0.178.

On to A43C U63A, for which the self-cleavage is 0.126.

For the variant C46G U52G, the self-cleavage amounted to 0.232.

Regarding G19C G25U, the self-cleavage was found to be 0.623.

As to G21U U58C, the self-cleavage was 0.84.

Take G21U U58G: the self-cleavage came out at 0.585.

Turning to G25A A35G, the self-cleavage worked out at 0.738.

Turning to U20G U33G, the self-cleavage came out at 0.11.

Turning to G1U G42C, the self-cleavage turned out to be 0.0939.

For U7G G69A, the self-cleavage worked out at 0.398.

Regarding G17C C38G, the self-cleavage stood at 0.245.

On to C16A U55A, for which the self-cleavage was 0.221.

As for G34U A45C, the self-cleavage was 0.213.

On to A24G C37A, for which the self-cleavage stood at 0.345.

As for G21C G57A, the self-cleavage came out at 0.16.

A30U A59G: the self-cleavage amounted to 0.187.

As to U5A, the self-cleavage was determined as 0.368.

Consider C4A A61C, for which the self-cleavage worked out at 0.173.

C6G A11U: the self-cleavage amounted to 0.314.

For U8C G40C, the self-cleavage was 0.0998.

With C3G G17U, the self-cleavage worked out at 0.365.

Take G40C A43C: the self-cleavage turned out to be 0.168.

Regarding C16G G19C, the self-cleavage was 0.618.

A11G G13C: the self-cleavage was 0.567.

Regarding A11G U53C, the self-cleavage is 1.02.

For the variant G40C C46U, the self-cleavage is 0.116.

U2G G27U: the self-cleavage turned out to be 0.172.

As for A30U A47C, the self-cleavage is 0.0639.

With U33C A47G, the self-cleavage stood at 0.219.

As to G17U C66U, the self-cleavage worked out at 0.537.

For G21A G25U, the self-cleavage was determined as 0.426.

Turning to A45G C50A, the self-cleavage was 0.123.

As to G13A G32C, the self-cleavage was determined as 0.136.

As for U60G A64C, the self-cleavage was 0.186.

Consider U7A U52A, for which the self-cleavage was found to be 0.992.

Turning to U20A A44G, the self-cleavage came to 0.112.

For G15C A64G, the self-cleavage is 0.532.

Regarding A64C, the self-cleavage worked out at 0.174.

For the variant U67C, the self-cleavage was found to be 0.227.

For C4A A49C, the self-cleavage came out at 0.213.

With U33G G68U, the self-cleavage came out at 0.0922.

Take A30C U33G: the self-cleavage is 0.0878.

A41U G56A: the self-cleavage worked out at 0.285.

With C4U C46A, the self-cleavage came out at 0.164.

On to G29C U60A, for which the self-cleavage was found to be 0.139.

Turning to G27C G68U, the self-cleavage is 0.147.

Take A26G A30C: the self-cleavage came to 0.0939.

Take A11U U52C: the self-cleavage was found to be 0.891.

For the variant G27U A30G, the self-cleavage worked out at 0.0852.

For the variant C37U C65U, the self-cleavage is 0.316.

On to G21A C37G, for which the self-cleavage turned out to be 0.344.

In the case of G1U A45U, the self-cleavage stood at 0.228.

Consider C16U A36C, for which the self-cleavage stood at 0.789.

Consider A22U G32A, for which the self-cleavage came to 0.122.

On to G27A A36U, for which the self-cleavage came to 0.198.

A23G G54A: the self-cleavage amounted to 0.489.

As for G34A A49C, the self-cleavage was 0.12.

In the case of C10G G57A, the self-cleavage worked out at 0.0913.

In the case of C10G G57C, the self-cleavage amounted to 0.124.

Take A22G U70A: the self-cleavage worked out at 0.81.

For the variant C37G U70C, the self-cleavage is 0.531.

Take U20A C48A: the self-cleavage stood at 0.23.

On to U55G U60G, for which the self-cleavage turned out to be 0.185.

For the variant G17C A26C, the self-cleavage amounted to 0.655.

For G68A G69C, the self-cleavage is 0.19.

Regarding A59C, the self-cleavage worked out at 0.171.

With A31U A45G, the self-cleavage is 0.0267.

A11U C38U: the self-cleavage was determined as 0.47.

With G27U A61C, the self-cleavage stood at 0.149.

With C16U U58A, the self-cleavage worked out at 0.731.

For A35C, the self-cleavage came to 1.02.

With G29U A61C, the self-cleavage was found to be 0.14.

G29U U52G: the self-cleavage was found to be 0.0467.

As for G21U A23U, the self-cleavage was 0.754.

Take A26G G54C: the self-cleavage stood at 0.457.

Consider U2A C10A, for which the self-cleavage came out at 0.132.

Turning to G13A A35G, the self-cleavage is 0.732.

With G13A A35U, the self-cleavage worked out at 0.78.
